Conditions: Armoracia rusticana, CD, reversible: yes, whole UniProt chain shown
[1] = pH 3.2, 22 °C, GdnHCl, glycine 50 mM
[2] = pH 3.2, 22 °C, Urea, glycine 50 mM
[3] = pH 3.2, 25 °C, GdnHCl, glycine 50 mM
[4] = pH 3.2, 25 °C, Urea, glycine 50 mM
[5] = pH 3.2, 27 °C, GdnHCl, glycine 50 mM
[6] = pH 3.2, 27 °C, Urea, glycine 50 mM
[7] = pH 3.2, 30 °C, GdnHCl, glycine 50 mM
[8] = pH 3.2, 30 °C, Urea, glycine 50 mM
[9] = pH 6.4, 22 °C, GdnHCl, sodium phosphate 2.5 mM
[10] = pH 6.4, 22 °C, Urea, sodium phosphate 2.5 mM
[11] = pH 6.4, 25 °C, GdnHCl, sodium phosphate 2.5 mM
[12] = pH 6.4, 25 °C, Urea, sodium phosphate 2.5 mM
[13] = pH 6.4, 27 °C, GdnHCl, sodium phosphate 2.5 mM
[14] = pH 6.4, 27 °C, Urea, sodium phosphate 2.5 mM
[15] = pH 6.4, 30 °C, GdnHCl, sodium phosphate 2.5 mM
[16] = pH 6.4, 30 °C, Urea, sodium phosphate 2.5 mM
[17] = pH 10, 22 °C, GdnHCl, glycine 50 mM
[18] = pH 10, 22 °C, Urea, glycine 50 mM
[19] = pH 10, 25 °C, GdnHCl, glycine 50 mM
[20] = pH 10, 25 °C, Urea, glycine 50 mM
[21] = pH 10, 27 °C, GdnHCl, glycine 50 mM
[22] = pH 10, 27 °C, Urea, glycine 50 mM
[23] = pH 10, 30 °C, GdnHCl, glycine 50 mM
[24] = pH 10, 30 °C, Urea, glycine 50 mM

B1: Peroxidase C2 wild type, P17179 (protein)
chain: MHSSSSLIKLGFLLLLLNVSLSHAQLSPSFYDKTCPQVFDIATNTIKTALRSDPRIAASILRLHFHDCFVNGCDASILLDNTTSFRTEKDAFGNARSARGFDVIDTMKAAVEKACPKTVSCADLLAIAAQKSVVLAGGPSWKVPSGRRDSLRGFMDLANDNLPGPSSTLQVLKDKFRNVGLDRPSDLVALSGGHTFGKNQCQFIMDRLYNFSNSGKPDPTLDKSYLSTLRKQCPRNGNLSVLVDFDLRTPTIFDNKYYVNLKENKGLIQSDQELFSSPDASDTIPLVRAYADGQGKFFDAFVEAMIRMGNLSPSTGKQGEIRLNCRVVNSKPKIMDVVDTNDFASSI
Protein B1 has a denaturant m value [1] of 2.86 kcal/mol/M, an unfolding free energy [1] of 6.75 kcal/mol and a denaturant m value [2] of 1.23 kcal/mol/M. The unfolding free energy [2] was 6.42 kcal/mol, the denaturant m value [3] was 2.94 kcal/mol/M and the unfolding free energy [3] was 6.25 kcal/mol. It also gave a denaturant m value [4] of 1.26 kcal/mol/M, an unfolding free energy [4] of 5.94 kcal/mol and a denaturant m value [5] of 2.99 kcal/mol/M. The unfolding free energy [5] was 5.68 kcal/mol, the denaturant m value [6] was 1.31 kcal/mol/M and the unfolding free energy [6] was 5.63 kcal/mol. The denaturant m value [7] was 3.2 kcal/mol/M, the unfolding free energy [7] was 4.98 kcal/mol and the denaturant m value [8] was 1.37 kcal/mol/M. For the same protein, the unfolding free energy [8] was 5.18 kcal/mol, the denaturant m value [9] was 4.75 kcal/mol/M and the unfolding free energy [9] was 6.68 kcal/mol. For the same protein, the denaturant m value [10] was 2.02 kcal/mol/M, the unfolding free energy [10] was 6.45 kcal/mol and the denaturant m value [11] was 4.9 kcal/mol/M. The unfolding free energy [11] was 6.38 kcal/mol, the denaturant m value [12] was 2.06 kcal/mol/M and the unfolding free energy [12] was 5.94 kcal/mol. For the same protein, the denaturant m value [13] was 5.08 kcal/mol/M, the unfolding free energy [13] was 6.22 kcal/mol and the denaturant m value [14] was 2.11 kcal/mol/M. For the same protein, the unfolding free energy [14] was 5.87 kcal/mol, the denaturant m value [15] was 5.16 kcal/mol/M and the unfolding free energy [15] was 5.62 kcal/mol. The denaturant m value [16] was 2.18 kcal/mol/M, the unfolding free energy [16] was 5.69 kcal/mol and the denaturant m value [17] was 2.85 kcal/mol/M. The unfolding free energy [17] was 6.7 kcal/mol, the denaturant m value [18] was 1.28 kcal/mol/M and the unfolding free energy [18] was 6.71 kcal/mol. The denaturant m value [19] was 2.99 kcal/mol/M, the unfolding free energy [19] was 6.4 kcal/mol and the denaturant m value [20] was 1.3 kcal/mol/M. The unfolding free energy [20] was 6.36 kcal/mol, the denaturant m value [21] was 3.11 kcal/mol/M and the unfolding free energy [21] was 5.87 kcal/mol. It also gave a denaturant m value [22] of 1.37 kcal/mol/M, an unfolding free energy [22] of 6.04 kcal/mol and a denaturant m value [23] of 3.17 kcal/mol/M. For the same protein, the unfolding free energy [23] was 5.23 kcal/mol, the denaturant m value [24] was 1.4 kcal/mol/M and the unfolding free energy [24] was 5.54 kcal/mol.

From FireProtDB (doi:10.1016/0141-8130(95)93517-2)
